# System: F1*sub RNA substrate (template-directed ligation)
# Test: fraction ligated after 30 min (ligated reads / total reads); higher = more ligase activity; sequences stand for … in GAGACCGCAACTGAAAAGTTGT…AGTTCTGCACGTAGAAGCAAAAGGC
# Conditions: 42 °C
# Experimental: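 Chip-synthesised pool of F1* ligase ribozyme variants (all single and double substitutions, single, double and triple deletions in the catalytic core and GAA bulge, plus designed variants) was transcribed with T7 and reacted as a pool with excess substrate F1*sub for 30 min at 42 C in 50 mM EPPS pH 8.5, 25 mM MgCl2. Ligated and unligated bands were separated by PAGE, barcoded by RT and deep sequenced; fraction ligated = ligated reads / total reads per variant, relative activity = FL / FL of wild type (0.826). Sequences are the DNA template of the ribozyme.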
row,Sequence,fraction ligated
1,TATCCTTGTCGTAGACACTTTGGAGGGTTGA [3d1051],0.00532
2,TATCACTGTCGTGACACTTTGGATGGGTTGA [3d1385],0.854
3,ATACTTGTCGAAGACACTTTGGATGGGTTGA [3d53],0.268
4,ATCACTGTCGAAGACACTTTGGATGGGTTGA [3d110],0.775
5,TATCACGTCGTAAGACACTTTGGATGGGTTG [3d1310],0.782
6,TTCATTGTCGAAGACACTTTGGATGGGTTGA [3d322],0.197
7,TACACTGTCGAAGACACTTTGGATGGGTTGA [3d571],0.346
8,TATCATTGTCGTAAGAACTTTGGATGGGTTA [3d1253],0.623
9,TATCATTGTGTAAGACACTTTGGATGGGTTG [3d1186],0.786
10,TACACTTGTGTAAGACACTTTGGTGGGTTGA [3d627],0.134
11,TATCACTTGTCGAAGACACTTTGGATGGGTT [3d1979],0.763
12,TATCACTTGCGTAAGACACTTTGAGGGTTGA [3d1690],0.0844
13,TATCACGTCGTAAGACACTTTGGTGGGTTGA [3d1306],0.721
14,TATCACTTGTCTAAGACACTTGGAGGGTTGA [3d1881],0.0594
15,TAACTTGTCGTAGACACTTTGGATGGGTTGA [3d515],0.177
16,TATCACTTGTCGTAAGACATTTGGTGGGTTA [3d2222],0.00331
17,TATCACTTGTCGTAAACATTTGGATGGTTGA [3d2078],0.15
18,TATCACTTGTCGTAAGACACTTTATGGTTGA [3d2257],0.0255
19,TACATTGTCGTAAGACACTTTGGTGGGTTGA [3d561],0.144
20,TATCACTTGTCGAAGCACTTGGATGGGTTGA [3d1928],0.747
21,TATCACTGTCTAAGACACTTTGGTGGGTTGA [3d1367],0.34

row,Sequence,fraction ligated
1,TACACTTGTCGAAGACATTTGGATGGGTTGA [3d651],0.444
2,TATCATTTCGTAAACACTTTGGATGGGTTGA [3d1144],0.806
3,TATCCTTTCGTAAGACACTTGGATGGGTTGA [3d977],0.76
4,TATCATTGTCTAAACACTTTGGATGGGTTGA [3d1189],0.785
5,TTCACTTGTCGTAAGACCTTTGGATGGTTGA [3d474],0.523
6,TATCACTTGTCGTAAGACACTTGATGGGTTGA [2d277],0.662
7,TATCACTTGTCGTAACACTTTGGATGGTTGA [3d2000],0.0413
8,TATCACTTGCGTAAGAACTTTGGAGGGTTGA [3d1663],0.0542
9,TATCACTTGTCGTAGACACTTTGGTGGGTTGA [2d229],0.287
10,TATACTTGTCGTAAGACACTTTGATGGGTTA [3d936],0.0174
11,TATCATTGTCGTAAGACACTTGATGGGTTGA [3d1270],0.779
12,TATCACTTTCGTAAGACCTTTGGATGGGTTG [3d1553],0.75
13,TATCACTTTCGTAAGACACTTTGATGGTTGA [3d1571],0.0696
14,TATCCTTGTCGAAGACACTTTGGATGGGTTA [3d1040],0.404
15,TATACTTGTCGTAAGACACTTTGGATGGGTTG [2d89],0.733
16,TATCATTGTCGTAAACACTTTGGATGGGTTG [3d1236],0.809
17,TATCACTTGCGAGACACTTTGGATGGGTTGA [3d1613],0.821
18,TATCACTTGTCTAAGCACTTTGATGGGTTGA [3d1850],0.724
19,TATCACTTGTCTAAGACCTTTGGAGGGTTGA [3d1867],0.202
20,TATCACTTGTCTAAGAACTTTGGATGGGTTA [3d1862],0.735
21,TATCACTTGTCGTAGACACTTTGGAGGTTGA [3d2052],0.072

row,Sequence,fraction ligated
1,TATACTTGTCTAGACACTTTGGATGGGTTGA [3d844],0.732
2,ATCACTTGTCGTAAGACCTTGGATGGGTTGA [3d239],0.716
3,TACACTTGTCGTAAACACTTTGGATGGGTTG [3d681],0.0503
4,TATCACTTGTCGTAAGACACTTTGGAGGTTG [3d2278],0.00797
5,TATCACTTGCGTAAGCACTTTGATGGGTTGA [3d1653],0.802
6,ATCATTGTCGTAAGACACTTTGGTGGGTTGA [3d100],0.109
7,TTACTTGCGTAAGACACTTTGGATGGGTTGA [3d281],0.0196
8,TATCCTTGTCGTAAGCATTTGGATGGGTTGA [3d1067],0.763
9,TACACTTGTGTAAGACACTTGGATGGGTTGA [3d625],0.0347
10,TATCCTTGTCGAAGACACTTGGATGGGTTGA [3d1035],0.775
11,TTCACTTGTCGTAAGACCTTTGGATGGGTTGA [2d38],0.793
12,TATCACTTGCGAAGACACTTTGGATGGGTTGA [2d165],0.835
13,TTCACTTGTCGTAAGCATTTGGATGGGTTGA [3d454],0.769
14,TATACTTGTCGTAAACACTTTGGATGGGTTG [3d892],0.0953
15,ATCACTTGTCGTAAGCACTTTGGAGGGTTGA [3d227],0.0599
16,TATCACTTGTCGTAGCACTTTGGATGGGTTA [3d2011],0.728
17,TTCACTGTCGTAAGACACTTTGATGGGTTGA [3d349],0.653
18,TATCACTTGTCGAAGACACTTTGGATGGTTGA [2d218],0.615
19,ATCACTGTCGTAAGACACTTTGATGGGTTGA [3d118],0.685
20,TATCACTTTCGTGACACTTTGGATGGGTTGA [3d1506],0.813
21,TTCACTTGTCGTAAGAACTTTGGATGGGTTG [3d469],0.533

row,Sequence,fraction ligated
1,TATCCTGTCGAAGACACTTTGGATGGGTTGA [3d954],0.786
2,TATCACTTGTCAAGACACTTTGGAGGGTTGA [3d1819],0.138
3,TATACTTGTCGTAAGCACTTTGGATGGTTGA [3d900],0.0214
4,TTCACTTGTCGTAAGACACTTTGGATGGGTTGA [1d2],0.789
5,TATCATTGTCTAAGACACTTGGATGGGTTGA [3d1194],0.78
6,TTCACTTGTCGTAAGAATTTGGATGGGTTGA [3d462],0.693
7,TATCACTTGCGTAAACACTTTGGATGGGTTG [3d1648],0.795
8,TATCACTTGCGTAAGACACTTTGGAGGGTTA [3d1699],0.122
9,TATCATTGCGTAAGACACTTTGATGGGTTGA [3d1166],0.681
10,TATCACTTGCGTAGACATTTGGATGGGTTGA [3d1631],0.821
11,TATCACTTGCGTAAAACTTTGGATGGGTTGA [3d1639],0.858
12,TCACTTGTCGTAAGACACTTTGGATGGGTTA [3d22],0.427
13,ATACTTGTGTAAGACACTTTGGATGGGTTGA [3d51],0.734
14,TATCACTTGGTAAACACTTTGGATGGGTTGA [3d1587],0.826
15,TATCACTGTCGTAAGAACTTTGGATGGGTTG [3d1425],0.87
16,TATCACTTGTCGTGACACTTTGGATGGTTGA [3d1990],0.0934
17,TATCACTTGTCGAAACATTTGGATGGGTTGA [3d1917],0.821
18,TTCACTTGTCGTAAGAACTTTGATGGGTTGA [3d464],0.119
19,TATCACTTGTCGAAGACATTTGGAGGGTTGA [3d1953],0.021
20,TATCACTTGCGTAAACACTTTGGTGGGTTGA [3d1644],0.0539

# — the supplement of paper PMC6755084
